Patent US20200095278A1 (USTAV ORGANICKE CHEMIE A BIOCHEMIE AV CR V V I, published 2020)
No end group written: not given here.

Columns and labels:
[1] = target: T1, E. coli rhomboid protease GlpG (E. coli, UniProt P09391 1-276, limits assumed); experiment: cell-based or functional assay
T1 sequence (looked up): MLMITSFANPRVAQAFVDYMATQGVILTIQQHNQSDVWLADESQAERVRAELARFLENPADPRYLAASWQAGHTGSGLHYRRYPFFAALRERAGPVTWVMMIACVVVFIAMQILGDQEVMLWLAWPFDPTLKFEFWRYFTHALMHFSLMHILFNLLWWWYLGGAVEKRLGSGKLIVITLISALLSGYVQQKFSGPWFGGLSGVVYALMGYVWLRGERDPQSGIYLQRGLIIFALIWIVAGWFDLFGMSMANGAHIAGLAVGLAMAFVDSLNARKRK

[2] = target: T1, E. coli rhomboid protease GlpG; experiment: in vitro inhibition of rhomboid protease GlpG, as described (Ticha et al., 2017); printed as a Ki range

B1: Compound 1 (peptide)
peptide: Ac-RVRHA-{keto‑C(:O)NH2}
IC50 (µM), measured in vitro as described (Ticha et al., 2017) [1]: 203 µM

B2: Compound 10 (peptide)
peptide: Ac-RVRHA
modifications: also: C-terminal Ala as alpha-ketoamide, -CO-CO-NH-CH2-(2,5-dimethylphenyl)
notes: Structure is printed only as a drawing; Tail inferred from C38H60N14O7, MW 824.99; also called Cpd No. 10
IC50 (µM), measured in vitro as described (Ticha et al., 2017) [1]: 0.18 µM | Ki [2]: 10 to 100 nM

B3: Compound 11 (peptide)
peptide: Ac-RVRHA
modifications: also: C-terminal Ala as alpha-ketoamide, -CO-CO-NH-(CH2)4-Ph
notes: Structure is printed only as a drawing; Tail inferred from C39H62N14O7, MW 839.02; also called Cpd No. 11
IC50 (µM), measured in vitro as described (Ticha et al., 2017) [1]: 0.15 µM | Ki [2]: 10 to 100 nM

B4: Compound 13 (peptide)
peptide: Ac-Arg-His-Ala
modifications: not fully specified (C-terminus)
IC50 (µM), measured in vitro as described (Ticha et al., 2017) [1]: 9.05 µM

B5: Compound 14 (peptide)
peptide: Ac-His-Ala
modifications: not fully specified (C-terminus)
IC50 (µM), measured in vitro as described (Ticha et al., 2017) [1]: 48 µM

B6: Compound 16 (peptide)
peptide: Ac-RVWHA-{keto‑C(:O)NH-4‑phenylbutyl}
IC50 (µM), measured in vitro as described (Ticha et al., 2017) [1]: 0.77 µM

B7: Compound 2 (peptide)
peptide: Ac-RVRHA-{keto‑C(:O)NH-isopropyl}
IC50 (µM), measured in vitro as described (Ticha et al., 2017) [1]: 12.4 µM

B8: Compound 3 (peptide)
peptide: Ac-RVRHA
modifications: not fully specified (C-terminus)
IC50 (µM), measured in vitro as described (Ticha et al., 2017) [1]: 5.01 µM

B9: Compound 4 (peptide)
peptide: Ac-RVRHA-{keto‑C(:O)NH-benzyl}
IC50 (µM), measured in vitro as described (Ticha et al., 2017) [1]: 7.64 µM

B10: Compound 5 (peptide)
peptide: Ac-RVRHA-{keto‑C(:O)NH-1‑phenylethyl}
IC50 (µM), measured in vitro as described (Ticha et al., 2017) [1]: 13.8 µM

B11: Compound 6 (peptide)
peptide: Ac-RVRHA-{keto‑C(:O)NH-ethoxycarbonylmethyl}
IC50 (µM), measured in vitro as described (Ticha et al., 2017) [1]: 4.24 µM

B12: Compound 7 (peptide)
peptide: Ac-RVRHA-{keto‑C(:O)NH-neopentyl}
IC50 (µM), measured in vitro as described (Ticha et al., 2017) [1]: 2.15 µM

B13: Compound 8 (peptide)
peptide: Ac-RVRHA-{keto‑C(:O)NH-pentyl}
IC50 (µM), measured in vitro as described (Ticha et al., 2017) [1]: 1.08 µM

B14: Compound 9 (peptide)
peptide: Ac-RVRHA
modifications: also: C-terminal Ala as alpha-ketoamide, -CO-CO-NH-(CH2)2-Ph
notes: Structure is printed only as a drawing; Tail inferred from monoisotopic mass 810.461290, MW 810.96, and the NMR; It has the same mass as compound 5; also called Cpd No. 9
IC50 (µM), measured in vitro as described (Ticha et al., 2017) [1]: 0.34 µM | Ki [2]: 10 to 100 nM
